From the DeepSol protein solubility set come the findings set out here.

This data set in a line: soluble on expression in E. coli; label from the status in PepcDB or PDB records.
Regarding “MAIIKSPVFKDISEAEISEMTSAGFLRARKFRKKAIIYHVTDIVHEIGIVASGQVTIEYIDMWGNKAIMSNIAPGQVFAETYALSGEPLMVDAVASETSVVLFLNIRKLMDSQPENVHYKDTILNNLLHISIQKNLTLSNRIFCTSPKTIRDRLLIYLSNESRKAGCEEFSIPFDRQQLADYLNVDRTALSKELGKMRDDGLIEFRKNVFHLLSIC”, the “soluble on expression in E. coli” value is listed as “not soluble”.
To “MAIKNAFYAQSGGVTAVINASACGVIQTARKHPDQIGKVYAGRNGIIGALKEELIDTSLESDDAIQALIHTPGGAFGSCRYKLKNISENQREYERLIEVFRAHDIGYFFYNGGGDSQDTAYKVSQLADRMGYPITCIGVPKTVDNDLPFTDCCPGFGSVAKYIATSTLEASLDIKSMCETSTKVFILEVMGRHAGWIAAAGGLAGQSEGEPPHVILFPEIPFNREKFLERVDQCVRDYGYCVVVASEGAQYEDGRFVADAGAKDAFGHTQLGGVAPALANMVKQALGHKYHWAVADYLQRAARHIASATDVEQAYAVGKAAVEMALAGKQALMPTIVRDQAKPYRWSIGEANLSEVANQEKKMPIHYITDNGFGITQDCRDYLQPLIAGESFPPFDDGLPRVAKLKNQLVEKKLRTEFELLEHHHHHH” belongs “not soluble”; to “MAILIELQDICVDFEQRRVLDNIRLTLTKGNITTLIGPNGAGKSTLVKVILGLQSLSSGKIIRQSGIRIGYVPQKLKLNDTLPLTVNRFLKLAGRFSTQELSEALRLVGGEHLQSSDMHKLSGGETQRVLLARALLQRPDLLVLDEPAQGVDVQGQIDLYDLIHTLRNRFGCAVLMVSHDLHLVMAKTDEVICLQHHVCCSGSPESIAKHPSYLAMFGHRSRDTLAFYQHHHEHHHHDLSGLPVKGKASVCSHHSHGHHKHD”, “not soluble”; to “MAIPDYQAVMLPLLKYAGDGKEHHIRDAIEKLAEEFELSEEERKELLPSGQQAIFKNRIGWANTYLKKAGLLGSRKKGYFSITRRGLDVLREKPPSIDVSFLKRYKEFNEFYNKDKQVLIDKPDVPEAEGKRALDPEESLEIAYQKLHNELVSEIISTTKKCSPAFFESLVVDVLTKMGYGGSRVDAGKAIGKSHDGGIDGIIKEDRLGLDVIYIQAKRWEGTVSKPEIQKFAGALIGKKAKKGVFITTSSFSKEAIEYADFTGNIVLVDGEMLARLMIEYNVGVSRVKSYEVKKMDTDYFEDGVI”, “not soluble”.
The entry for “MAIVDPIVTGLNAGWLHTDASQLQANQQFEADVVIVGTGAGGGVAAEILTQAGLSVIMIEAGPLKSSSDFNMEERVAYPNLYQQAAAMKTADKAIGIFQGRAVGGSTTINWTTSIRTPKEALAFWAQHKSVAGLDPEALAPWFDQMEQRLNIHEWNYEPNRNNGALKQGCINLGWDYTVIKRNVAGCWNTGYCGMGCPVNAKQSMLVTTIPSALEKGAQLISRAKVVKIEHHNGQVFALKAQALDVNLRPTAVELLFKAKHYILSAGAIHTPTLMMRSEVPDPHQLLGKRTFLHPTVLSGGVFADTINAHSGAPQSIYSDEFVWKNGADGELGYKLEVPPVHPILIASKTIGYGVSHAELMAQFNQLQVTIALIRDGYHPDSQGGQVHLTPTGFSLDYPLTDAFWRAVRRAYASMAELQFSAGALKVLPISDGMPYLSSWKEAKESIAQMDLAPLKTVVASAHVMGGCPLGEDEKLSMVNSYGQSHYLNNLSVMDGSIFPTSLGANPQLSIYGITARNATALAQKLKDGREPQLEHHHHHH” is “not soluble”; for “MAKARRRRVRDTWKEKKWYVIKSPKLFGENEIGTTPSRDPDFLLKRRVEATMRELTGDFSKQYVKLKFQIDSVAGSEATTRFIGHQVTTDYVRSMIRRGTSRVDAPVIVETKDGYKLKVHPLAITIRRAKSSQQKYMRQSIEEHLREIASEKTFEELVEGIVTGKIASEIYHQAKKIYPLKRVEIIKSRVLEEPALEHHHHHH” it is “soluble”; for “MAKEFLIELGTEELPPKQLRTLAEAFAANFAAELATADIAHEGVTWFATPRRLALKVANLAESQPDRVVEKRGPAVNVAFDADGKPTKAAEGWARGNGITVEQAERLVTDKGEWLLFKEQVQGQQTASVVVEMAAKALANLPIAKPMRWGDKETQFIRPVKTLTILFGSELIQGEILGVASARTLRGHRFMGEAEFTIESAEQYPAILEERGKVIADYATRKAMIIEGSQQAAQQLGGIADLEDALVEEVTSLVEWPVVMTAKFEEKFLKVPAEALVYTMKGDQKYFPVYDASKKLLPNFIFVSNIESKEPRHIVEGNEKVVRPRLADAEFFFNTDRKRPLVDRLPLLENAIFQQQLGTIKDKTDRITELAGYIAEQIGADVEKSKRAGLLAKCDLMTSMVFEFTDTQGVMGMHYARHDGEAEEVAVALNEQYMPRFAGDELPSRGVSAAVAMADKLDTIVGIFGIGQAPKGSDPFALRRASLGVLRILVEYGYQLDLVDLIAKAKSLFGDRLTNANVEQEVIEFMLGRFPTWYQDAGFSIDIIQAVLARNPTKPADFDQRVKAVSHFRALEEAEALAAANKRVGNILAKYDGELGEEIDLALLQEDAEKALAEAVEIMAEALEPAFATGNYQEALSKLAGLRAPVDAFFDNVMVMADDEALKKNRLTLLNKLRNLFLQIADISLLQK” it is “not soluble”.
To “MAKGASISGFPEWLPSERVVEQRVIDTLRNVFELNGFIGIETRAVEQGSSLLKKGETSKEIYLLSRLQEVGHESDTPIEDRLGLHFDLTVPLSRYVVEHSGDLAFPFKRWQIQKVWRGERPQEGRFREFVQADIDVIGNGDLPDHYEVELPLVMVSALERLREFGLPKATVHANNRKLSEGFYRGLGLTDIEGVLREIDKLDKIGADEVAKLLVEGCGADEAQARACLELAELTAADGKELSDKFDALCAKHDIASDSDAYVLARQGLDTLAMIVDEAARIRPGSVIADLKIARGLDYYTGSVYETFLDGAAALGSICSGGRYDNLASQGNKKYPGVGLSIGLSRLVSYMLHTAGAHANRVSPASVLVAVWNEADRSASNLIANQLRSRGIAADVAPTAAKLGKQIKYADKLGIPYVWFPADASEEGAQDEVKNIITGDQRPADAQSWEPDTVYAQQTVTVEA” belongs “soluble”.
For the sequence “MAKIDIIDNYETLLISVEEIRASLESLHAWLDKDIDWDSQCDWYDFISQHSSQIAILNLIMYRLDSLEVEHRSVIENTMKGK”, the “soluble on expression in E. coli” value is listed as “not soluble”.
The entry for “MAKLENPILMAKIGGAQGLRGEVRVSTYTDDPMALGDYGNLVTADGRVFEILEVREGKNVVVVRFRGINDRNAAESLNGLELFIERDNLPDDELDDDEFYYADLEGLEAVDAEGKSYGAVSAVYDFGAGDLLELKGAGRRPALIPFSEAAVLEIDLEAGRILIDPMAAGLIDNPDDKDQNGMSPFGKKLEHHHHHH” is “not soluble”.
To “MAKMRRYPAVAGQFYPEGDALIEMLSSFFKDLGEEGTKRTITAGVAPHAGYVFSGFTASRTYKAIYEDGLPEVFVIFGPNHTGLGSPIALYPEGEWITPMGSIKVDSKFAKEIVKRSGIADLDDLAHKYEHSIEVQLPFIQYIAEKAGVEVKIVPITLGIQDEEVSRSLGRSIFEASTSLGRDTIIIASTDFMHYGSFYGYVPFRGRPEELPNMVRDWDMRIIRRILDFDLDGMFSEIREMNHTMCGPGGVGAGIIYSRLMKAKEAELLHYTTSFEVSRSPDAIVGYASIIMKRLEHHHHHH” belongs “not soluble”; to “MAKMTTLKMKERLEKELQAPNRQFSYNRDNDALTVVQSGKKVTLAIPQIIANYENDGDAAVEKIVYYVEEGFRAAAGNVELENNKANVYPVVRATSFPGETKAGEVLLTDDHTAETKIFYAVDLGKSYRFIEESMLKKAQLTHEEIREAAFNNLANLEIPLKKDSVNGNDFYFVRTNDGYDASRLLNEAFLREMREKLTGEMVLAVPHQDVLIIGDIQDNTGYDVLAHMTMDFFADGLVPITSLPFVYNNGKLEPIFIMAKNRLKE”, “not soluble”.
